The values below come from patent US9803012B2, “Compositions and methods for regulating SAS1R” (UNIVERSITY OF VIRGINIA PATENT FOUNDATION, priority 2005, dated 2017).

What all share (type): cell-based
Assay [1] concerns mouse eggs. As to the kind of experiment: Fertilization of mouse eggs with mouse sperm with recombinant mouse SLLP2. As to the method:
Recombinant mouse SLLP2 at concentrations of 25, 50, 100, and 200 μg/ml was incubated with sperm and egg, and compared to BSA and PBS controls as described above. It can be seen that fertilization occurred at a rate of about 75% in the BSA and PBS controls groups. […] Also provided are comparisons of human SLLP2 to other mammalian sequences, and well as a comparison indicating the conservation of SLLP2 ortholog in dogs.

Assay [2] concerns mouse sperm-egg fusion. The assay is described as follows: Mouse sperm-egg fusion with recombinant mouse SLLP2. The following applies: 100 or 200 μg/ml, relative to BSA and PBS controls. As to the method:
Next, it was determined whether recombinant mouse SLLP2 could inhibit mouse sperm-egg fusion. In groups treated with recombinant mouse SLLP2 the number of sperm fused per egg was reduced to about 0.1 sperm fused per egg, at concentrations of 100 or 200 μg/ml recombinant mouse SLLP2, relative to BSA and PBS control treatments.

Assay [3] relates to mouse eggs. As to the kind of experiment: Binding of SLLP2 to mouse eggs. As to the method: To analyze the biologic activity of human SLLP2, it was determined whether it would bind to an egg, in this case, a mouse egg.
(§1) For comparison to the use of human sperm SLLP2, an experiment was performed to determine if purified mouse SLLP2 would bind to Zona intact mouse eggs. […] Competitive assays were then performed to determine whether the addition of recombinant mouse SLLP2 to a mixture of mouse sperm and mouse eggs could inhibit binding of sperm and eggs. Various amounts of recombinant mouse SLLP2 were added (5, 25, 50, 100, and 200 μg/ml) and the number of sperm bound per egg was determined.

Assay [4] concerns mouse sperm and mouse eggs. The assay is described as follows: Competitive assay of sperm-egg binding with recombinant mouse SLLP2. The following applies: 5, 25, 50, 100 and 200 μg/ml, relative to BSA (200 μg/ml) or PBS controls. As to the method:
as §1

B1: recombinant mouse SLLP2: purified recombinant mouse sperm lysozyme-like protein 2 (mature protein SEQ ID NO:16) (protein, listed as Mus musculus)
chain: KIYERCELAKKLEEAGLDGFKGYTVGDWLCVAHYESGFDTSFVDHNPDGSSEYGIFQLNSAWWCNNGITPTQNLCNIDCNDLLNRHILDDIICAKRVASSHKSMKAWDSWTQHCAGHDLSEWLKGCSVRLKTDSSYNNW
As for B1, the inhibition of fertilization entry in assay [1] (200 μg/ml) is “nearly totally inhibiting fertilization”; in assay [1] (25, 50, 100 and 200 μg/ml, vs BSA and PBS controls), “inhibited fertilization in a dose-dependent fashion”. Moreover, the “number of sperm fused per egg” value in assay [2] is on record as “about 0.1 sperm fused per egg”. Further, the “binding to Zona-free mouse eggs” value in assay [3] (mouse SLLP2) is listed as “would bind to Zona-free mouse eggs”. For the same molecule, the “binding to Zona intact mouse eggs” value in assay [3] (purified mouse SLLP2) is listed as “does indeed bind to mouse eggs”. For the same molecule, the “number of sperm bound per egg” value in assay [4] was “able to reduce the amount of binding occurring between sperm and egg”.
